Source: the supplement of paper PMC6757056
± gives the standard deviation of the averaged measurements.

B1: library; a variant is named by its letters at N, in order (parent)
chain: GCUGUCACCGAGAAACUGUGAAGUAUAUCUUAAACCUGGGCACUUAAAAGAUAUAUGGAGUUAGUAGUGCAACCUGCUCGGUCUGAUGAGUCCNNNNNNGGACGAAACAGC

Key:
cyclic di-GMP [1] = variants of: B1; test: FACS-Seq fitted mean relative fluorescence mCherry/BFP without ligand (log10 relative fluorescence); HEK293T; ligand: cyclic di-GMP (c-di-GMP-II aptamer); higher = higher reporter protein expression; conditions: ligand present: no
Method in brief: (§1)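 Sorting into 6 bins by mCherry/BFP followed 48 h of incubation with or without ligand. The cells were enriched HEK293T libraries lentivirally bearing an mCherry reporter with the ribozyme switch and an EF1α-BFP marker, and bin genomic DNA was PCR-amplified, barcoded and sequenced on MiSeq. Fluorescence is the fitted normal mean of the bin counts. Means were fitted on log10(mCherry/BFP), scaled to five spiked-in control ribozymes.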

cyclic di-GMP [2] = variants of: B1; test: normalized RNA/DNA level without ligand (relative to sTRSVctl = 100) (log10 (% of sTRSVctl)); HEK293T; ligand: cyclic di-GMP (c-di-GMP-II aptamer); higher = less ribozyme self-cleavage, higher mRNA level; conditions: reporter: mCherry (pCS4076), ligand present: no
Method in brief: (§2)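 Ribozyme switch library plasmids with mCherry reporters (eGFP in certain ligand experiments) went into HEK293T cells at 4 µg per 6-well well. Where ligand was used, it was applied 1 h before transfection, and total RNA was extracted with EDTA 72 h later for reverse transcription, amplification, barcoding and sequencing. RNA level is the RNA-to-DNA read ratio normalized to a spiked-in non-cleaving sequence or to the leading sequences, then scaled and log-transformed. Scaling was ×100 with log10, the leading set comprised 25 sequences, and the cutoff was ≥100 DNA reads.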

cyclic di-GMP [3] = variants of: B1; test: FACS-Seq fitted mean relative fluorescence mCherry/BFP with ligand (log10 relative fluorescence); HEK293T; ligand: cyclic di-GMP (c-di-GMP-II aptamer); ligand concentration (+) FACS-Seq: 1 mM; higher = higher reporter protein expression; conditions: ligand present: yes
Method in brief: as §1

cyclic di-GMP [4] = variants of: B1; test: normalized RNA/DNA level with ligand (relative to sTRSVctl = 100) (log10 (% of sTRSVctl)); HEK293T; ligand: cyclic di-GMP (c-di-GMP-II aptamer); ligand concentration (+) RNA-Seq: 1 mM; higher = less ribozyme self-cleavage, higher mRNA level; conditions: reporter: mCherry (pCS4076), ligand present: yes
Method in brief: as §2

Variant | FACS-Seq fitted mean (log10) (cyclic di-GMP [1]) | normalized RNA/DNA level without ligand (log10) (cyclic di-GMP [2]) | FACS-Seq fitted mean (log10) (cyclic di-GMP [3]) | normalized RNA/DNA level with ligand (log10) (cyclic di-GMP [4])
CUUCAA | -0.32 ± 0.059 | 1.43 ± 0.099 | 0.136 ± 0.056 | 1.64 ± 0.083
UUUGUA | -0.5429 ± 0.0021 | 1.708 ± 0.002 | -0.268 ± 0.088 | 1.85 ± 0.13
UUUGUU | -0.123 ± 0.13 | 1.73 ± 0.063 | 0.125 ± 0.064 | 1.86 ± 0.13
AAAAUA |  | 1.48 ± 0.041 |  | 1.69 ± 0.1
GUGGUC | -0.682 ± 0.026 | 1.25 ± 0.077 | -0.386 ± 0.015 | 1.46 ± 0.099
GUGGUA | -0.522 ± 0.03 | 1.58 ± 0.059 | -0.23 ± 0.015 | 1.72 ± 0.08
GUGGUG | -0.455 ± 0.011 | 1.69 ± 0.036 | -0.117 ± 0.042 | 1.83 ± 0.12
CAACAG |  | 1.6987 ± 0.0016 |  | 1.85 ± 0.13
CAACAC |  | 1.58 ± 0.028 |  | 1.77 ± 0.12
GUUAAU | -0.336 ± 0.014 | 1.62 ± 0.041 | -0.0912 ± 0.025 | 1.77 ± 0.067
GUUAAG | -0.00319 ± 0.05 | 1.55 ± 0.05 | 0.189 ± 0.031 | 1.72 ± 0.098
UUGUUC | -0.6418 ± 0.0047 | 1.75 ± 0.018 | -0.462 ± 0.0095 | 1.89 ± 0.1
AAACCC |  | 1.718 ± 0.0046 |  | 1.86 ± 0.09
AAACCU |  | 1.72 ± 0.018 |  | 1.84 ± 0.097
AAACCA |  | 1.57 ± 0.054 |  | 1.76 ± 0.094
GAAGCC |  | 1.78 ± 0.034 |  | 1.89 ± 0.12
CAACCA |  | 1.54 ± 0.084 |  | 1.71 ± 0.1
CAACCG |  | 1.817 ± 0.009 |  | 1.88 ± 0.071
CAACCC |  | 1.719 ± 0.015 |  | 1.82 ± 0.12
UAAAAA |  | 1.65 ± 0.048 |  | 1.78 ± 0.12
UAAAAC |  | 1.697 ± 0.003 |  | 1.8 ± 0.1
UAAAAU |  | 1.615 ± 0.00033 |  | 1.79 ± 0.099
GUUAUG | -0.452 ± 0.02 | 1.57 ± 0.081 | -0.0804 ± 0.023 | 1.78 ± 0.09

Variant | FACS-Seq fitted mean (log10) (cyclic di-GMP [1]) | normalized RNA/DNA level without ligand (log10) (cyclic di-GMP [2]) | FACS-Seq fitted mean (log10) (cyclic di-GMP [3]) | normalized RNA/DNA level with ligand (log10) (cyclic di-GMP [4])
GUUAUA | -0.123 ± 0.14 | 1.59 ± 0.042 | 0.169 ± 0.14 | 1.75 ± 0.071
CUUGGA | -0.381 ± 0.03 | 1.55 ± 0.031 | -0.107 ± 0.044 | 1.73 ± 0.16
CUGUUA | -0.289 ± 0.046 | 1.33 ± 0.091 | 0.158 ± 0.13 | 1.58 ± 0.084
UAACUG |  | 1.73 ± 0.017 |  | 1.84 ± 0.13
UAACUA |  | 1.688 ± 0.0017 |  | 1.82 ± 0.12
UAAGAG |  | 1.61 ± 0.017 |  | 1.74 ± 0.086
UAAGAA |  | 1.597 ± 0.008 |  | 1.74 ± 0.13
UAAGAC |  | 1.647 ± 0.0022 |  | 1.82 ± 0.13
UAAGAU |  | 1.597 ± 0.0022 |  | 1.79 ± 0.13
AAACGU |  | 1.47 ± 0.095 |  | 1.62 ± 0.18
AAACGA |  | 1.39 ± 0.15 |  | 1.57 ± 0.097
AAACGC |  | 1.67 ± 0.027 |  | 1.85 ± 0.082
GUUUAU | -0.2549 ± 0.0013 | 1.652 ± 0.0032 | -0.31 ± 0.34 | 1.81 ± 0.086
CUUUAA | -0.402 ± 0.005 | 1.32 ± 0.094 | -0.039 ± 0.028 | 1.54 ± 0.087
UUUAAC | 0.0586 ± 0.15 | 1.7 ± 0.022 | 0.264 ± 0.026 | 1.84 ± 0.099
UUUAAU | 0.192 ± 0.051 | 1.698 ± 0.015 | 0.405 ± 0.0074 | 1.84 ± 0.08
UAACAU |  | 1.62 ± 0.019 |  | 1.76 ± 0.08
UAACAA |  | 1.7 ± 0.034 |  | 1.83 ± 0.16
UAACAG |  | 1.68 ± 0.02 |  | 1.86 ± 0.098
UAACAC |  | 1.68 ± 0.035 |  | 1.83 ± 0.13
GUUGAG | -0.16 ± 0.072 | 1.55 ± 0.081 | 0.0985 ± 0.045 | 1.72 ± 0.11
GUUGAC | -0.0708 ± 0.036 | 1.658 ± 0.008 | 0.228 ± 0.1 | 1.79 ± 0.099
UAAAUC |  | 1.63 ± 0.033 |  | 1.79 ± 0.17

Variant | FACS-Seq fitted mean (log10) (cyclic di-GMP [1]) | normalized RNA/DNA level without ligand (log10) (cyclic di-GMP [2]) | FACS-Seq fitted mean (log10) (cyclic di-GMP [3]) | normalized RNA/DNA level with ligand (log10) (cyclic di-GMP [4])
AAAAAU |  | 1.547 ± 0.0027 |  | 1.72 ± 0.13
AAAAAA |  | 1.37 ± 0.12 |  | 1.6 ± 0.078
AAAAAC |  | 1.61 ± 0.031 |  | 1.74 ± 0.13
AAAAAG |  | 1.45 ± 0.09 |  | 1.66 ± 0.082
GAACUC |  | 1.725 ± 0.004 |  | 1.85 ± 0.1
GAACUU |  | 1.68 ± 0.051 |  | 1.83 ± 0.096
GAACUG |  | 1.66 ± 0.059 |  | 1.75 ± 0.089
GAACGG |  | 1.703 ± 0.0094 |  | 1.78 ± 0.082
GAACGC |  | 1.64 ± 0.07 |  | 1.78 ± 0.058
GAAAUC |  | 1.659 ± 0.012 |  | 1.81 ± 0.11
GUGGAU | -0.528 ± 0.045 | 1.52 ± 0.093 | -0.192 ± 0.024 | 1.72 ± 0.072
GUGGAC | -0.519 ± 0.08 | 1.55 ± 0.092 | -0.171 ± 0.053 | 1.75 ± 0.095
UUUAGU | 0.00244 ± 0.12 | 1.732 ± 0.013 | 0.273 ± 0.034 | 1.87 ± 0.088
CAAGCA |  | 1.63 ± 0.035 |  | 1.76 ± 0.11
CAAGCC |  | 1.76 ± 0.022 |  | 1.85 ± 0.087
CAAGCG |  | 1.74 ± 0.052 |  | 1.85 ± 0.11
AUUCAG | -0.308 ± 0.062 | 1.59 ± 0.026 | -0.0248 ± 0.0054 | 1.74 ± 0.1
GUUAGA | -0.409 ± 0.02 | 1.51 ± 0.12 | -0.0172 ± 0.12 | 1.73 ± 0.11
GUUAGG | -0.197 ± 0.021 | 1.56 ± 0.061 | 0.171 ± 0.057 | 1.72 ± 0.076
AUGGAU | -0.631 ± 0.017 | 1.51 ± 0.057 | -0.404 ± 0.012 | 1.67 ± 0.12
GUUUUG | 0.124 ± 0.17 | 1.61 ± 0.095 | 0.384 ± 0.05 | 1.8 ± 0.083
GUUUUU | -0.978 ± 0.05 | 1.715 ± 0.0068 | -0.711 ± 0.12 | 1.87 ± 0.12
AAAAGU |  | 1.52 ± 0.071 |  | 1.71 ± 0.057

Variant | FACS-Seq fitted mean (log10) (cyclic di-GMP [1]) | normalized RNA/DNA level without ligand (log10) (cyclic di-GMP [2]) | FACS-Seq fitted mean (log10) (cyclic di-GMP [3]) | normalized RNA/DNA level with ligand (log10) (cyclic di-GMP [4])
CUUAGC | -0.863 ± 0.058 | 1.79 ± 0.00046 | -0.484 ± 0.043 | 1.88 ± 0.11
CUUCUA | -0.605 ± 0.032 | 1.44 ± 0.072 | -0.312 ± 0.059 | 1.67 ± 0.075
AUGUAU | -0.148 ± 0.067 | 1.61 ± 0.036 | 0.196 ± 0.014 | 1.82 ± 0.052
AUGUAC | -0.466 ± 0.057 | 1.6256 ± 0.0011 | -0.129 ± 0.17 | 1.79 ± 0.077
GAACCG |  | 1.7241 ± 0.00012 |  | 1.81 ± 0.1
GAACCU |  | 1.69 ± 0.033 |  | 1.86 ± 0.08
GAACCA |  | 1.677 ± 0.0078 |  | 1.8 ± 0.13
UUGGCU | -0.121 ± 0.069 | 1.789 ± 0.009 | 0.192 ± 0.12 | 1.88 ± 0.15
GUUGCG | -0.248 ± 0.029 | 1.81 ± 0.023 | 0.0336 ± 0.026 | 1.88 ± 0.092
GAAGAG |  | 1.5 ± 0.14 |  | 1.71 ± 0.094
GAAGAC |  | 1.563 ± 0.0055 |  | 1.76 ± 0.12
CUUGAA | -0.585 ± 0.066 | 1.35 ± 0.11 | -0.291 ± 0.046 | 1.55 ± 0.086
CUUGAC | -0.287 ± 0.2 | 1.69 ± 0.024 | 0.101 ± 0.066 | 1.83 ± 0.085
AUGUGU | -0.484 ± 0.16 | 1.53 ± 0.043 | -0.314 ± 0.021 | 1.77 ± 0.11
AAAACU |  | 1.669 ± 0.0017 |  | 1.79 ± 0.086
AAAACA |  | 1.51 ± 0.072 |  | 1.7 ± 0.074
AAAACC |  | 1.68 ± 0.014 |  | 1.81 ± 0.083
GUUCUA | -0.743 ± 0.033 | 1.635 ± 0.0068 | -0.5214 ± 0.0042 | 1.75 ± 0.095
GUUCUG | -0.079 ± 0.018 | 1.67 ± 0.021 | 0.284 ± 0.091 | 1.84 ± 0.15
UUGUAU | 0.0117 ± 0.057 | 1.66 ± 0.051 | 0.163 ± 0.013 | 1.82 ± 0.16
UUGUAG | -0.163 ± 0.065 | 1.6682 ± 0.00036 | 0.112 ± 0.032 | 1.83 ± 0.14
AUUAGC | -0.0321 ± 0.09 | 1.6567 ± 0.0015 | 0.226 ± 0.11 | 1.76 ± 0.16
